# According to IntAct's records for PubMed 16968782:
# B1: Nephrin (Homo sapiens), O60500-1 (parent)
# chain: MALGTTLRASLLLLGLLTEGLAQLAIPASVPRGFWALPENLTVVEGASVELRCGVSTPGSAVQWAKDGLLLGPDPRIPGFPRYRLEGDPARGEFHLHIEACDLSDDAEYECQVGRSEMGPELVSPRVILSILVPPKLLLLTPEAGTMVTWVAGQEYVVNCVSGDAKPAPDITILLSGQTISDISANVNEGSQQKLFTVEATARVTPRSSDNRQLLVCEASSPALEAPIKASFTVNVLFPPGPPVIEWPGLDEGHVRAGQSLELPCVARGGNPLATLQWLKNGQPVSTAWGTEHTQAVARSVLVMTVRPEDHGAQLSCEAHNSVSAGTQEHGITLQVTFPPSAIIILGSASQTENKNVTLSCVSKSSRPRVLLRWWLGWRQLLPMEETVMDGLHGGHISMSNLTFLARREDNGLTLTCEAFSEAFTKETFKKSLILNVKYPAQKLWIEGPPEGQKLRAGTRVRLVCLAIGGNPEPSLMWYKDSRTVTESRLPQESRRVHLGSVEKSGSTFSRELVLVTGPSDNQAKFTCKAGQLSASTQLAVQFPPTNVTILANASALRPGDALNLTCVSVSSNPPVNLSWDKEGERLEGVAAPPRRAPFKGSAAARSVLLQVSSRDHGQRVTCRAHSAELRETVSSFYRLNVLYRPEFLGEQVLVVTAVEQGEALLPVSVSANPAPEAFNWTFRGYRLSPAGGPRHRILSSGALHLWNVTRADDGLYQLHCQNSEGTAEARLRLDVHYAPTIRALQDPTEVNVGGSVDIVCTVDANPILPGMFNWERLGEDEEDQSLDDMEKISRGPTGRLRIHHAKLAQAGAYQCIVDNGVAPPARRLLRLVVRFAPQVEHPTPLTKVAAAGDSTSSATLHCRARGVPNIVFTWTKNGVPLDLQDPRYTEHTYHQGGVHSSLLTIANVSAAQDYALFTCTATNALGSDQTNIQLVSISRPDPPSGLKVVSLTPHSVGLEWKPGFDGGLPQRFCIRYEALGTPGFHYVDVVPPQATTFTLTGLQPSTRYRVWLLASNALGDSGLADKGTQLPITTPGLHQPSGEPEDQLPTEPPSGPSGLPLLPVLFALGGLLLLSNASCVGGVLWQRRLRRLAEGISEKTEAGSEEDRVRNEYEESQWTGERDTQSSTVSTTEAEPYYRSLRDFSPQLPPTQEEVSYSRGFTGEDEDMAFPGHLYDEVERTYPPSGAWGPLYDEVQMGPWDLHWPEDTYQDPRGIYDQVAGDLDTLEPDSLPFELRGHLV
# partner: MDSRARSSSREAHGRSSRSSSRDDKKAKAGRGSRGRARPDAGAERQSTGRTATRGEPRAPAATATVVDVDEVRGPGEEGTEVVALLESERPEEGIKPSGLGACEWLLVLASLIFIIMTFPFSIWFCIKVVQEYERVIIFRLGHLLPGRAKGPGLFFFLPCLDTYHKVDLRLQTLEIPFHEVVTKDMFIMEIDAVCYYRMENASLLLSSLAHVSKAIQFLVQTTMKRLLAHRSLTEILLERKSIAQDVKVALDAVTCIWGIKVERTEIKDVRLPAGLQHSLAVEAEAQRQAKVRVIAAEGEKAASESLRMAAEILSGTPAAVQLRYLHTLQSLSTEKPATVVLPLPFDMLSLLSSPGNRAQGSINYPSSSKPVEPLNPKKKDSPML
# B2: Nephrin (Homo sapiens), O60500-1 (parent)
# chain: B1 chain
# Variants of: B1
# Settings: with podo_mouse Nphs2, Q91X05
row,effect of a mutation on the interaction,Variant
1,disrupting interaction strength,Y1193F

# Variants of: B2
# Settings: with arrb2_human ARRB2, P32121
# arrb2_human ARRB2, P32121, sequence (P32121 whole entry): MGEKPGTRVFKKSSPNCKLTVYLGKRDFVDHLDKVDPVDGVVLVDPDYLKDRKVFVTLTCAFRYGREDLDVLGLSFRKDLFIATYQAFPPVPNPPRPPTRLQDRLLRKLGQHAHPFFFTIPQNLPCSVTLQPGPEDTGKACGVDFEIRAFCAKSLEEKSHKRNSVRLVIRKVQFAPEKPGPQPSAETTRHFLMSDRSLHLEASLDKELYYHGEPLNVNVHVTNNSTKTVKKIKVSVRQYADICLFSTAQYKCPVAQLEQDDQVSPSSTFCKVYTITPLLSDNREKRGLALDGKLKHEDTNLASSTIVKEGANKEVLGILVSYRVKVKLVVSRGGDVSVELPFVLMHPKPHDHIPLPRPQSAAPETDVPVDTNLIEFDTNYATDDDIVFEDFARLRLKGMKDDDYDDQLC
row,effect of a mutation on the interaction,Variant
1,decreasing interaction strength,Y1193A
